One molecule from article PMC7902612 (2021) can be followed below.

This assay has as its target GST-BRCA1-N (N-terminal of BRCA1, 1-147 aa) (human, UniProt P38398 1-147). Kind of assay: MST.

Chain of GST-BRCA1-N (N-terminal of BRCA1, 1-147 aa) (P38398 1-147): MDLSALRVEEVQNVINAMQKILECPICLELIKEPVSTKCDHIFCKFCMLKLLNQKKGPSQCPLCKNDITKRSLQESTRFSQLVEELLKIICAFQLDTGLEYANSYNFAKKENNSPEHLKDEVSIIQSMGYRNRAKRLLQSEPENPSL

B1: GFP-BARD1^WT (natural protein)
chain: MPDNRQPRNRQPRIRSGNEPRSAPAMEPDGRGAWAHSRAALDRLEKLLRCSRCTNILREPVCLGGCEHIFCSNCVSDCIGTGCPVCYTPAWIQDLKINRQLDSMIQLCSKLRNLLHDNELSDLKEDKPRKSLFNDAGNKKNSIKMWFSPRSKKVRYVVSKASVQTQPAIKKDASAQQDSYEFVSPSPPADVSERAKKASARSGKKQKKKTLAEINQKWNLEAEKEDGEFDSKEESKQKLVSFCSQPSVISSPQINGEIDLLASGSLTESECFGSLTEVSLPLAEQIESPDTKSRNEVVTPEKVCKNYLTSKKSLPLENNGKRGHHNRLSSPISKRCRTSILSTSGDFVKQTVPSENIPLPECSSPPSCKRKVGGTSGRKNSNMSDEFISLSPGTPPSTLSSSSYRRVMSSPSAMKLLPNMAVKRNHRGETLLHIASIKGDIPSVEYLLQNGSDPNVKDHAGWTPLHEACNHGHLKVVELLLQHKALVNTTGYQNDSPLHDAAKNGHVDIVKLLLSYGASRNAVNIFGLRPVDYTDDESMKSLLLLPEKNESSSASHCSVMNTGQRRDGPLVLIGSGLSSEQQKMLSELAVILKAKKYTEFDSTVTHVVVPGDAVQSTLKCMLGILNGCWILKFEWVKACLRRKVCEQEEKYEIPEGPRRSRLNREQLLPKLFDGCYFYLWGTFKHHPKDNLIKLVTAGGGQILSRKPKPDSDVTQTINTVAYHARPDSDQRFCTQYIIYEDLCNYHPERVRQGKVWKAPSSWFIDCVMSFELLPLDS
The Kd is the concentration at which binding is half-saturated. A high value points to weaker binding. As for B1, the affinity, expressed as Kd, was 1340 nM.
